Test results: PMC3961180, “The Kil Peptide of Bacteriophage λ Blocks Escherichia coli Cytokinesis via ZipA-Dependent Inhibition of FtsZ Assembly” (PLoS Genetics, 2014)

Target: the molecule itself
Test: co-sedimentation; FtsZ 5 µM, His6-FLAG-Kil 10 µM, His6-tagged ZipAC domains 5 µM, GTP 1 mM in polymerization buffer; 1 mM CaCl2 for calcium-induced bundling; TLA 100.3 rotor at 70,000 rpm; supernatant and pellet on Coomassie-stained gels

B1: E. coli FtsZ (natural protein, UniProt P0A9A6 1-383, looked up)
chain: MFEPMELTNDAVIKVIGVGGGGGNAVEHMVRERIEGVEFFAVNTDAQALRKTAVGQTIQIGSGITKGLGAGANPEVGRNAADEDRDALRAALEGADMVFIAAGMGGGTGTGAAPVVAEVAKDLGILTVAVVTKPFNFEGKKRMAFAEQGITELSKHVDSLITIPNDKLLKVLGRGISLLDAFGAANDVLKGAVQGIAELITRPGLMNVDFADVRTVMSEMGYAMMGSGVASGEDRAEEAAEMAISSPLLEDIDLSGARGVLVNITAGFDLRLDEFETVGNTIRAFASDNATVVIGTSLDPDMNDELRVTVVATGIGMDKRPEITLVTNKQVQQPVMDRYQQHGMAPLTQEQKPVAKVVNDNAPQTAKEPDYLDIPAFLRKQAD
notes: cell division protein FtsZ, E. coli; expressed from pET11a-ftsZ (from H. Erickson); No tag is named for this construct; also called FtsZWT; source: E. coli BL21(DE3) pET11a-ftsZ (WM971), purified (successive 20% and 30% ammonium sulfate cuts)
B1: binds.
